Starred links: 1 amine or outer side, 2 acyl side, 3 side chain; linkers in the order of their positions; H or OH if unused. Non-standard residues stand in square brackets, D forms with d. Groups on a side chain read outwards from the residue. No end group written: not given here. *: point of attachment. C20 diacid = O=C(O)CCCCCCCCCCCCCCCCCCC(=O)*; C18 diacid = O=C(O)CCCCCCCCCCCCCCCCC(=O)*; γGlu = O=C(O)[C@H](CCC(=O)[*:2])N[*:1]; αMeF = C[C@](N)(Cc1ccccc1)C(=O)O; AEEA = NCCOCCOCC(=O)O; Aib = CC(C)(N)C(=O)O
Tests used:
Assay in all cases: cell-based or functional assay
[1] = biological target: human GLP-1 receptor (hGLP-1R) (human, UniProt P43220 24-463)
[2] = biological target: human glucagon receptor (hGCGR) (human, UniProt P47871 26-477)
human glucagon receptor = human glucagon receptor (human, UniProt P47871 26-477)
human GLP-1 receptor = human GLP-1 receptor (human, UniProt P43220 24-463)

Chain of human glucagon receptor (hGCGR) (P47871 26-477): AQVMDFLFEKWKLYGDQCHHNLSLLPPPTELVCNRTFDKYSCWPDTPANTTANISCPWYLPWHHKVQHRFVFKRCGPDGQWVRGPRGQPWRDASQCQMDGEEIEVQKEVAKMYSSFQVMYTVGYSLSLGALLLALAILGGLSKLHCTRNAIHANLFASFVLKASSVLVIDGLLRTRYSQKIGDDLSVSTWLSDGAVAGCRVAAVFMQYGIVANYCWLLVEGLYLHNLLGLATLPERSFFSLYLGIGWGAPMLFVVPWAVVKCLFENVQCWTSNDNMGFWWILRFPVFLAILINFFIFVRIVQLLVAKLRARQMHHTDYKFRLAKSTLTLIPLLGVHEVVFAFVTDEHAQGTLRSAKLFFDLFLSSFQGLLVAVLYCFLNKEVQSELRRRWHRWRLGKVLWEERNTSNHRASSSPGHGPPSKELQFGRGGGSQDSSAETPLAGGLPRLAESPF
Chain of human glucagon receptor (P47871 26-477): as above

B1: Peptide 149 (peptide)
peptide: H[Aib]QGTFTSDVSK[αMeF]LDSK([AEEA-AEEA-γGlu-C18 diacid])RAQDFVRWVVE[Aib]G-OH
modifications: N-terminus assumed
SMILES: CC(C)C[C@H](NC(=O)[C@](C)(Cc1ccccc1)NC(=O)[C@H](CCCCN)NC(=O)[C@H](CO)NC(=O)[C@@H](NC(=O)[C@H](CC(=O)O)NC(=O)[C@H](CO)NC(=O)[C@@H](NC(=O)[C@H](Cc1ccccc1)NC(=O)[C@@H](NC(=O)CNC(=O)[C@H](CCC(N)=O)NC(=O)C(C)(C)NC(=O)[C@@H](N)Cc1c[nH]cn1)[C@@H](C)O)[C@@H](C)O)C(C)C)C(=O)N[C@@H](CC(=O)O)C(=O)N[C@@H](CO)C(=O)N[C@@H](CCCCNC(=O)COCCOCCNC(=O)COCCOCCNC(=O)CC[C@H](NC(=O)CCCCCCCCCCCCCCCCC(=O)O)C(=O)O)C(=O)N[C@@H](CCCNC(=N)N)C(=O)N[C@@H](C)C(=O)N[C@@H](CCC(N)=O)C(=O)N[C@@H](CC(=O)O)C(=O)N[C@@H](Cc1ccccc1)C(=O)N[C@H](C(=O)N[C@@H](CCCNC(=N)N)C(=O)N[C@@H](Cc1c[nH]c2ccccc12)C(=O)N[C@H](C(=O)N[C@H](C(=O)N[C@@H](CCC(=O)O)C(=O)NC(C)(C)C(=O)NCC(=O)O)C(C)C)C(C)C)C(C)C
hGLP-1R EC50 (pM) [1]: 8.71 pM | hGluc-R EC50 (pM) [2]: 2650 pM

B2: Peptide 147 (peptide)
peptide: H[Aib]QGTFTSDVSK[αMeF]LDSK([AEEA-AEEA-γGlu-C18 diacid])RAQDFVRWLEA[Aib]G-OH
modifications: N-terminus assumed
SMILES: CC(C)C[C@H](NC(=O)[C@H](Cc1c[nH]c2ccccc12)NC(=O)[C@H](CCCNC(=N)N)NC(=O)[C@@H](NC(=O)[C@H](Cc1ccccc1)NC(=O)[C@H](CC(=O)O)NC(=O)[C@H](CCC(N)=O)NC(=O)[C@H](C)NC(=O)[C@H](CCCNC(=N)N)NC(=O)[C@H](CCCCNC(=O)COCCOCCNC(=O)COCCOCCNC(=O)CC[C@H](NC(=O)CCCCCCCCCCCCCCCCC(=O)O)C(=O)O)NC(=O)[C@H](CO)NC(=O)[C@H](CC(=O)O)NC(=O)[C@H](CC(C)C)NC(=O)[C@](C)(Cc1ccccc1)NC(=O)[C@H](CCCCN)NC(=O)[C@H](CO)NC(=O)[C@@H](NC(=O)[C@H](CC(=O)O)NC(=O)[C@H](CO)NC(=O)[C@@H](NC(=O)[C@H](Cc1ccccc1)NC(=O)[C@@H](NC(=O)CNC(=O)[C@H](CCC(N)=O)NC(=O)C(C)(C)NC(=O)[C@@H](N)Cc1c[nH]cn1)[C@@H](C)O)[C@@H](C)O)C(C)C)C(C)C)C(=O)N[C@@H](CCC(=O)O)C(=O)N[C@@H](C)C(=O)NC(C)(C)C(=O)NCC(=O)O
hGLP-1R EC50 (pM) [1]: 15.3 pM | hGluc-R EC50 (pM) [2]: 43.5 pM

B3: Peptide 233 (peptide)
peptide: H[Aib]HGS[αMeF]TSDVSK[αMeF]LDSRAAK([AEEA-AEEA-γGlu-γGlu-C20 diacid])D[αMeF]VQ[Aib]IANTGG-NH2
modifications: N-terminus assumed
SMILES: CC[C@H](C)[C@H](NC(=O)C(C)(C)NC(=O)[C@H](CCC(N)=O)NC(=O)[C@@H](NC(=O)[C@](C)(Cc1ccccc1)NC(=O)[C@H](CC(=O)O)NC(=O)[C@H](CCCCNC(=O)COCCOCCNC(=O)COCCOCCNC(=O)CC[C@H](NC(=O)CC[C@H](NC(=O)CCCCCCCCCCCCCCCCCCC(=O)O)C(=O)O)C(=O)O)NC(=O)[C@H](C)NC(=O)[C@H](C)NC(=O)[C@H](CCCNC(=N)N)NC(=O)[C@H](CO)NC(=O)[C@H](CC(=O)O)NC(=O)[C@H](CC(C)C)NC(=O)[C@](C)(Cc1ccccc1)NC(=O)[C@H](CCCCN)NC(=O)[C@H](CO)NC(=O)[C@@H](NC(=O)[C@H](CC(=O)O)NC(=O)[C@H](CO)NC(=O)[C@@H](NC(=O)[C@](C)(Cc1ccccc1)NC(=O)[C@H](CO)NC(=O)CNC(=O)[C@H](Cc1c[nH]cn1)NC(=O)C(C)(C)NC(=O)[C@@H](N)Cc1c[nH]cn1)[C@@H](C)O)C(C)C)C(C)C)C(=O)N[C@@H](C)C(=O)N[C@@H](CC(N)=O)C(=O)N[C@H](C(=O)NCC(=O)NCC(N)=O)[C@@H](C)O
hGluc-R EC50 (pM), cAMP (human glucagon receptor): 407 pM

B4: Peptide 148 (peptide)
peptide: H[Aib]QGTFTSDVSK[αMeF]LDSK([AEEA-AEEA-γGlu-C18 diacid])RAQDFVRWIAE[Aib]G-OH
modifications: N-terminus assumed
SMILES: CC[C@H](C)[C@H](NC(=O)[C@H](Cc1c[nH]c2ccccc12)NC(=O)[C@H](CCCNC(=N)N)NC(=O)[C@@H](NC(=O)[C@H](Cc1ccccc1)NC(=O)[C@H](CC(=O)O)NC(=O)[C@H](CCC(N)=O)NC(=O)[C@H](C)NC(=O)[C@H](CCCNC(=N)N)NC(=O)[C@H](CCCCNC(=O)COCCOCCNC(=O)COCCOCCNC(=O)CC[C@H](NC(=O)CCCCCCCCCCCCCCCCC(=O)O)C(=O)O)NC(=O)[C@H](CO)NC(=O)[C@H](CC(=O)O)NC(=O)[C@H](CC(C)C)NC(=O)[C@](C)(Cc1ccccc1)NC(=O)[C@H](CCCCN)NC(=O)[C@H](CO)NC(=O)[C@@H](NC(=O)[C@H](CC(=O)O)NC(=O)[C@H](CO)NC(=O)[C@@H](NC(=O)[C@H](Cc1ccccc1)NC(=O)[C@@H](NC(=O)CNC(=O)[C@H](CCC(N)=O)NC(=O)C(C)(C)NC(=O)[C@@H](N)Cc1c[nH]cn1)[C@@H](C)O)[C@@H](C)O)C(C)C)C(C)C)C(=O)N[C@@H](C)C(=O)N[C@@H](CCC(=O)O)C(=O)NC(C)(C)C(=O)NCC(=O)O
hGLP-1R EC50 (pM) [1]: 40.2 pM | hGluc-R EC50 (pM) [2]: 568 pM

B5: Peptide 210 (peptide)
peptide: H[Aib]HGS[αMeF]TSDVSK[αMeF]LDSQAAK([AEEA-AEEA-γGlu-γGlu-C18 diacid])DFVEWIANT-NH2
modifications: N-terminus assumed
SMILES: CC[C@H](C)[C@H](NC(=O)[C@H](Cc1c[nH]c2ccccc12)NC(=O)[C@H](CCC(=O)O)NC(=O)[C@@H](NC(=O)[C@H](Cc1ccccc1)NC(=O)[C@H](CC(=O)O)NC(=O)[C@H](CCCCNC(=O)COCCOCCNC(=O)COCCOCCNC(=O)CC[C@H](NC(=O)CC[C@H](NC(=O)CCCCCCCCCCCCCCCCC(=O)O)C(=O)O)C(=O)O)NC(=O)[C@H](C)NC(=O)[C@H](C)NC(=O)[C@H](CCC(N)=O)NC(=O)[C@H](CO)NC(=O)[C@H](CC(=O)O)NC(=O)[C@H](CC(C)C)NC(=O)[C@](C)(Cc1ccccc1)NC(=O)[C@H](CCCCN)NC(=O)[C@H](CO)NC(=O)[C@@H](NC(=O)[C@H](CC(=O)O)NC(=O)[C@H](CO)NC(=O)[C@@H](NC(=O)[C@](C)(Cc1ccccc1)NC(=O)[C@H](CO)NC(=O)CNC(=O)[C@H](Cc1c[nH]cn1)NC(=O)C(C)(C)NC(=O)[C@@H](N)Cc1c[nH]cn1)[C@@H](C)O)C(C)C)C(C)C)C(=O)N[C@@H](C)C(=O)N[C@@H](CC(N)=O)C(=O)N[C@H](C(N)=O)[C@@H](C)O
hGLP-1R EC50 (pM), cAMP (human GLP-1 receptor): 156 pM | hGluc-R EC50 (pM), cAMP (human glucagon receptor): 93.7 pM

B6: Peptide 213 (peptide)
peptide: H[Aib]HGS[αMeF]TSDVSK[αMeF]LDSRAAK([AEEA-AEEA-γGlu-γGlu-C20 diacid])DFVEWIANT-NH2
modifications: N-terminus assumed
SMILES: CC[C@H](C)[C@H](NC(=O)[C@H](Cc1c[nH]c2ccccc12)NC(=O)[C@H](CCC(=O)O)NC(=O)[C@@H](NC(=O)[C@H](Cc1ccccc1)NC(=O)[C@H](CC(=O)O)NC(=O)[C@H](CCCCNC(=O)COCCOCCNC(=O)COCCOCCNC(=O)CC[C@H](NC(=O)CC[C@H](NC(=O)CCCCCCCCCCCCCCCCCCC(=O)O)C(=O)O)C(=O)O)NC(=O)[C@H](C)NC(=O)[C@H](C)NC(=O)[C@H](CCCNC(=N)N)NC(=O)[C@H](CO)NC(=O)[C@H](CC(=O)O)NC(=O)[C@H](CC(C)C)NC(=O)[C@](C)(Cc1ccccc1)NC(=O)[C@H](CCCCN)NC(=O)[C@H](CO)NC(=O)[C@@H](NC(=O)[C@H](CC(=O)O)NC(=O)[C@H](CO)NC(=O)[C@@H](NC(=O)[C@](C)(Cc1ccccc1)NC(=O)[C@H](CO)NC(=O)CNC(=O)[C@H](Cc1c[nH]cn1)NC(=O)C(C)(C)NC(=O)[C@@H](N)Cc1c[nH]cn1)[C@@H](C)O)C(C)C)C(C)C)C(=O)N[C@@H](C)C(=O)N[C@@H](CC(N)=O)C(=O)N[C@H](C(N)=O)[C@@H](C)O
hGLP-1R EC50 (pM), cAMP (human GLP-1 receptor): 534 pM | hGluc-R EC50 (pM), cAMP (human glucagon receptor): 141 pM

B7: Peptide 146 (peptide)
peptide: H[Aib]QGTFTSDVSK[αMeF]LDSK([AEEA-AEEA-γGlu-C18 diacid])RAQDFVRWLASR-OH
modifications: N-terminus assumed
SMILES: CC(C)C[C@H](NC(=O)[C@H](Cc1c[nH]c2ccccc12)NC(=O)[C@H](CCCNC(=N)N)NC(=O)[C@@H](NC(=O)[C@H](Cc1ccccc1)NC(=O)[C@H](CC(=O)O)NC(=O)[C@H](CCC(N)=O)NC(=O)[C@H](C)NC(=O)[C@H](CCCNC(=N)N)NC(=O)[C@H](CCCCNC(=O)COCCOCCNC(=O)COCCOCCNC(=O)CC[C@H](NC(=O)CCCCCCCCCCCCCCCCC(=O)O)C(=O)O)NC(=O)[C@H](CO)NC(=O)[C@H](CC(=O)O)NC(=O)[C@H](CC(C)C)NC(=O)[C@](C)(Cc1ccccc1)NC(=O)[C@H](CCCCN)NC(=O)[C@H](CO)NC(=O)[C@@H](NC(=O)[C@H](CC(=O)O)NC(=O)[C@H](CO)NC(=O)[C@@H](NC(=O)[C@H](Cc1ccccc1)NC(=O)[C@@H](NC(=O)CNC(=O)[C@H](CCC(N)=O)NC(=O)C(C)(C)NC(=O)[C@@H](N)Cc1c[nH]cn1)[C@@H](C)O)[C@@H](C)O)C(C)C)C(C)C)C(=O)N[C@@H](C)C(=O)N[C@@H](CO)C(=O)N[C@@H](CCCNC(=N)N)C(=O)O
hGLP-1R EC50 (pM) [1]: 24.6 pM | hGluc-R EC50 (pM) [2]: 1630 pM
